# Data: the nanobody polyreactivity screen of Harvey et al. (2022)
# Assay: yeast display, Sf9 membrane polyspecificity reagent, FACS + sequencing; frameworks hold sequencing errors
# Summary of the method: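 A synthetic nanobody library was expressed on Saccharomyces cerevisiae BJ5465 by galactose induction for 36–48 hours. The library was stained for 1 hour at 4 °C with 10% biotinylated, detergent-solubilized Sf9 membrane reagent and enriched with streptavidin microbeads before FACS. Low and high (top ~1%) gates were set on anti-HA fluorescence for expression and streptavidin fluorescence for reagent binding, and each polyreactivity label reflects the gate of origin.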
row,Sequence,polyreactivity (PSR sort gate)
1,QVQLVESGGGLVQAGGSLRLTCAASGSILYYAMGWYRQAPGKERELVAAITRSGTTTYYAASVKGRFTISRDNAKKTVYLQMNSLKPEDTAVYFWAARTSYDYDYWGQGTQVTVSS,high polyreactivity
2,QVQLVESGGGLVQAGGSLRLTCAASGSITSINAMGWYRQAPGKERELVAAINWSSGSTYYADSVKGRFTISRDYAKNTVYLQKISLKPEDTAVYYCAVDRYFFAGYYGYEYWGQGTQGTVSS,high polyreactivity
3,QVQLVESGGGLVQAGGSLRLTCAASGSIVDANAMGLYRQAPGKERELVAAISSGDSTSYADSVKGRFTISRDNAKNTVYLQLNSLNPEDTAVYYCNAYVDSQGGFTLKHDYWGQGTQVTVSS,low polyreactivity
4,QVQLVESGGGLVQAGGSLRLTCAASGSTFDINAMGWYRQAPGKERELVASITFSGGSTYYADSVKGRFTISRDNAKNTVYLQMNSLKPEDTAVYYCAADSSGEYPRWLRYDYWGQGTQVTVSS,low polyreactivity
5,QVQLVESGGGLVQAGGSLRLTCAASGSTFIRYTMVWYRQAPGKEREFVATITWSTGTTYYADSVKGRFTISRDNAKYSVYLQMNSLKPEDTAVYYCAAVYYYYTGITYDYWGQGTQVTVSS,high polyreactivity
6,QVQLVESGGGLVQAGGSLRLTCAASGSTFLGYAMGWYRQAPGKERELVAAINLSTSGTYYADSVKGRFTISRDNAKNTVYLQMNSLKPEDTAVYYCAAAYSNINYYYQYYYWGQGTQVTVSS,low polyreactivity
7,QVQLVESGGGLVQAGGSLRLTCAASGSTFNAYTMGWYRQAPGKERELVAAISSGAGTYYADSVKGRFTISRDNAKYIVYLPMNSLKPEDTAVYYCAADPVGYYDPSVYWGQGTLVTVSS,low polyreactivity
8,QVQLVESGGGLVQAGGSLRLTCAASGSTFRHNAMGWYRQAPGKETELVAVITDGASTNYADSVKGRFTMSRDNAKNTVYLQLNSLKPEDTAVYYCAAYHRGYYTGREYYYWGQGTQVTVSS,low polyreactivity
9,QVQLVESGGGLVQAGGSLRLTCAASGSTFRVNVMGWYRQAPGTERELVAAITTSGGSTYYADSVKGRFTISRDNAKNTVYLQMNSLKPEDTAVYYCKTTYPSGWGPDMDYWGQGTQVTVSS,low polyreactivity
10,QVQLVESGGGLVQAGGSLRLTCAASGSTFSDYAMGWNRQAHGKERELVAGITGGGGTYYADSVKGRFTISRDNAKNTVYLQMNSLKPEDTALYYCAAGRRHGLGYWGQGTLVTVSS,low polyreactivity
11,QVQLVESGGGLVQAGGSLRLTCAASGSTFYYYTMGWYRQAPWKERELVAAITSAGSTHYADSVKGRFTISRDNAKNNVYLQMNSLKPEDTAVYYCAAKSHWWWRGYYYWGQGTQVTVSS,high polyreactivity
12,QVQLVESGGGLVQAGGSLRLTCAASGSTLIDNVMGWYRQAPGKERELVASITSSDGTTYADSVKGRFTISRDNAKNSVYLQMNSLKPEDTAVYYFAARPWYGTYNYWGEGTQVTVSS,low polyreactivity
13,QVQLVESGGGLVQAGGSLRLTCAASGTIFKRYAMRLYRQAPGKERELVATISSRGSCTNYADSLKGRFTISRDIAKNTVYLQMNSLKPQDTAVYYCASEVYRGDFWGQGTQVTVSS,high polyreactivity
14,QVQLVESGGGLVQAGGSLRLTCAASRRTFEHYAMGWYRQAPVKEREYVAAINSSDGGTYYADSVKGRFTISRDNAKNTVYLQMIRLKPDDSAVYYCAAAEFGSVPGYEMDYWGQGTQVTVSS,low polyreactivity
15,QVQLVESGGGLVQAGGSLRLTCAATGIIFSYYAKGWYRQAPGKERELVAAISWGGGSTFYADSVKGRFTISRDNAKKTVSLQMKSLKPEDNAVLFCDADYGGDFGMDYCGQGTQVTVSS,low polyreactivity
16,QVQLVESGGGLVQAGGSLRLTCAATGSTFHLYGMGWYRKAPGKESELVAAITKRGTSTYYADSVKGRFTISRDNAKNTVYLQINSLKPEDTAVYYCADEYTKEQRGFDYWGQGTQVTLSS,high polyreactivity

row,Sequence,polyreactivity (PSR sort gate)
1,QVQLVESGGGLVQAGGSLRLTCADSGSILYINAMGRYIQAPGKEREWVAAITYSGGSTYYADSVKGRFTISRDNAKNTVYLQMNSLKPEDTAVYYCAADAVVAGRYDGHDYWGQGTQVTVSS,low polyreactivity
2,QVQLVESGGGLVQAGGSLRLTCDASGRTFYWNAMGWYRQAPGKERELVAAISNCGTTTYYADSVKGRFTISRDNAKNTVYLQLNSLKPEDTAVYYCAADIWYFDYEYWGQGTQVTLSS,high polyreactivity
3,QVQLVESGGGLVQAGGSLRLTCDASGSTFYHNAMGWYRQAPGKERELVAAITTSGGSTYYADSVKWRFTISRDNAKNTVYLQMNSLKPEDSAVYYCNVYRPYLAPYDYWGQGTQVTVSS,low polyreactivity
4,QVQLVESGGGLVQAGGSLRLTSAASGRIIDQNAMGWYRQAPGKERELVAAITSGGSTNYADSVKGRFTISRDNAKNTVYLQMNSLKPEDTAVYYCNSRDASRRYDYDFLERDSWGQGTQVTVSS,low polyreactivity
5,QVQLVESGGGLVQAGGSLRLTSAASGRTFFRYAMRWYRQAPGKERELVAAISRGGGRTYYADSVKGRFTISRDNAKNTVYLQMNSLKPEDTAVYYCNKTERSGSNYLGQGTQVTVSS,high polyreactivity
6,QVQLVESGGGLVQAGGSLRLTSADSGRTFYKYAMGWYIQAPGKERELVAANSQSGGSTYYADSVNGRFTISRDNAKNTVYLQMNSLKPEDTAVYYCAARRLPRKERKLYYWGQGSQVTVSS,high polyreactivity
7,QVQLVESGGGLVQAGGSLRLTSADTGFNFGSYAMGWSRQAHGKEREFVAAISSNGGNTYYADSVKGRFTISRDNAKNTVYLEINSLKPEDTAVSYCAARYPSGTRKWYGYWGQGTQVTVSS,high polyreactivity
8,QVQLVESGGGLVQAGGSLRVICAASGSIGRYAMGWSRQAPGKERELVAAISSSGGSTYYADSVKGRFTISRDNAKNTVYLQMNSLKPEDTAGYYCAACPGAQEDDYWGPGTQVTVSS,high polyreactivity
9,QVQLVESGGGLVQAGGSLRVSCAASGFIFGLYAMGWYRQAPGKERELVATISWDGGSTYYADSVKGRFTISRDNAKNTVYLQMNSLKPEDTAVYYCAATYLYRSPYVPMDYWGQGSQVTVSS,low polyreactivity
10,QVQLVESGGGLVQAGGSLRVSCAASGFIFSYSAMGWYRQAPGKERELVAAISRSGGRTYYADSVKGRFTISRDNAKNTVYLQMNSLKPEDTAVYYCAAPVSLRPIYDYWGHGTQVTVSS,high polyreactivity
11,QVQLVESGGGLVQAGGSLRVSCAASGFTFPYSAMGWYRQAPGKERELVAAIDWTGGSTYYADSVKGRFTISRDNPKNTVNLQINSLIPDDTAVYYCARDVDYYISSPTPPVVELDYWGQGTQVTVSS,low polyreactivity
12,QVQLVESGGGLVQAGGSLRVSCAASGIIFDYYVMGWYRQAPGQERELVAAISRSCDRTNYADSVKGRFTISRDNAKNTVYLQMNSLKPEDTAVYYCAARVSIRGGGYEYWGQGTQLTVSS,high polyreactivity
13,QVQLVESGGGLVQAGGSLRVSCAASGLTFGDYTMGWYRQAPGKERELVAAISTAGGSTYYADSVKGRFTISREHANNTVYLHMNSLKPEDTAVYYCNARRTHTRSHYYYWGQGTQVTVSS,high polyreactivity
14,QVQLVESGGGLVQAGGSLRVSCAASGRIFASYAMGWYRQAPGKERELVAAISLSGGSTYYADSVKGRFTISRDNAKNTVFLQMNSLKPEDTAVYYCAAKNYRRYRDYYWGQGTQVTVSS,high polyreactivity
15,QVQLVESGGGLVQAGGSLRVSCAASGRIFKSNAMGWYRPAPGKERELVASSTASGGRTYYADSVKGRFTISRDNAKNTVYLQMNSLKPEDTAVYYCAAGRPFSKYGYWGQGTQVTVTS,high polyreactivity
16,QVQLVESGGGLVQAGGSLRVSCAASGRILPRYAMGWYRQAPGKEREFVARIDSGGSTNYADSVKGRFTISRDNAKNTVYIQMNSLKPEDTAVYYCAAVGTAQAYAYFTYGYDYWGQGTQVTVSS,low polyreactivity
